Source: patent US20170204158A1 (Regeneron, published 2017)
Values joined by “and” are separate entries in the source; they are usually repeats but may differ in a detail not shown here. Equal values may be shown once.

B1: monkey IL-33 expressed with C-terminal hexahistidine tag (MfIL-33-6His) (ligand)
chain: SITGISPITESLASLSTYNDQSITFALEDESYEIYVEDLKKDKKKDKVLLSYYESQHPSSESGDGVDGKMLMVTLSPTKDFWLQANNKEHSVELHKCEKPLPDQAFFVLHNRSFNCVSFECKTDPGVFIGVKDNHLALIKVDYSENLGSENILFKLSEILEHHHHHH

Legend:
[1] = molecular target: T1, human IL-33 (R&D Systems, # 3625-IL-010/CF) (human, UniProt O95760 112-270, biotinylated in the blocking ELISA of Example 3 (sites not given)); assay: competition ELISA; antagonist pre-mixed with 20 pM biotin-hIL-33, binding to plate-coated human ST2-Fc; highest concentration tested
T1 construct: Commercial protein; also called hIL-33; biot-hIL-33
T1 sequence (looked up): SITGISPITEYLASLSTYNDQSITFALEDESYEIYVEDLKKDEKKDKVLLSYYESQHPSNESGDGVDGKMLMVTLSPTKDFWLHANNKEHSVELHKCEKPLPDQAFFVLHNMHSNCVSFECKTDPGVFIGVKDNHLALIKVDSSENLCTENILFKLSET
Procedure: (§1) The ability of exemplary IL-33 antagonists of the invention to block human IL-33 (hIL-33) binding to the human ST2 receptor was measured using a competition sandwich ELISA. A portion of human ST2 protein ecto domain that was expressed with a C-terminal mouse Fc tag (SEQ ID NO:2) was coated at a concentration of 1 μg/mL in PBS buffer on a 96-well microtiter plate overnight at 4° C. […] Biotinylated hIL-33 protein (R&D systems, #3625-IL/CF) (biot-hIL-33) was added to achieve a constant final concentration of 20 pM to serial dilutions of IL-33 antagonists ranging from 0 to 100 nM. The mixture was incubated for 1 hour at room temperature (RT) before transfer to the hST2-hFc coated microtiter plates. After incubation for 1 hour at RT, the wells were then washed, and plate-bound biot-hIL-33 was detected with HRP-conjugated streptavidin (Thermo Scientific, # N200). All samples were developed with a TMB solution (BD biosciences, # 51-2607KC) to produce a colorimetric reaction and then quenched by acidification with 1M sulfuric acid before measuring absorbance at 450 nm on a Victor X5 plate reader (PerkinElmer). Data analysis was performed using a sigmoidal dose-response model within Prism™ software. […] Maximum blocking values represent the ability of the antagonists to block IL-33 binding relative to baseline. The absorbance measured at the constant amount of hIL-33 on the dose curve was defined as 0% blocking and the absorbance with no added IL-33 was defined as 100% blocking. The absorbance values of the wells containing the highest concentration tested for each antagonist were used to determine the maximum blocking percent.

[2] = molecular target: T1, human IL-33 (R&D Systems, # …); assay: competition ELISA; antagonist pre-mixed with 20 pM biotin-hIL-33, binding to plate-coated human ST2-Fc
Procedure: as §1

[3] = molecular target: T2, mouse IL-33 (R&D Systems, # 3626-ML-010/CF) (mouse, UniProt Q8BVZ5 109-266); assay: SPR (Biacore T-200), 25 C; Fc fusion captured by anti-Fc antibody, mouse IL-33 injected
T2 construct: Commercial protein; also called mIL-33; mIL33
T2 sequence (looked up): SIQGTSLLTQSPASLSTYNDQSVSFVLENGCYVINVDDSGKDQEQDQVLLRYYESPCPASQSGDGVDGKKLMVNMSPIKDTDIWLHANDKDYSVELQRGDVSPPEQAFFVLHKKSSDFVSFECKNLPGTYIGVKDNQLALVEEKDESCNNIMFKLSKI
Procedure: (§2) The Biacore sensor surface was first derivatized by amine coupling a polyclonal rabbit anti-mouse antibody (GE, # BR-1008-38) or with a monoclonal mouse anti-human Fc antibody (GE, # BR-1008-39) to capture IL-33 Trap and receptor proteins with a C-terminal mouse IgG2a Fc tag or a C-terminal human IgG1 Fc tag, respectively. Kinetic experiments were carried out in 0.01 M HEPES pH 7.4, 0.15 M NaCl, 3 mM EDTA, and 0.005% v/v Surfactant Tween-20 (HBST running buffer). Different concentrations of human IL-33, mouse IL-33 or MfIL-33-6His prepared in HBST running buffer (ranging from 60 nM to 27.4 pM, 3-fold dilutions, for Trap proteins and ranging from 60 nM to 0.25 nM, 3-fold dilutions, for ST2 receptor proteins) were injected over the captured IL-33 Trap and receptor protein surfaces at a flow rate of 50 μL/minute. Association of different IL-33 proteins to the different capture surfaces was monitored for 7 minutes for Trap proteins or 4 minutes for ST2 receptor proteins and their dissociation in HBST running buffer was monitored for 14 minutes for Trap proteins or 8 minutes for ST2 receptor proteins. Kinetic association (ka) and dissociation (kd) rate constants were determined by fitting the real-time binding sensorgrams to a 1:1 binding model using Scrubber 2.0c curve-fitting software. Binding dissociation equilibrium constants (KD) and dissociative half-lives (t½) were calculated from the kinetic rate constants as: […]

[4] = molecular target: T1, human IL-33 (R&D Systems, # …); assay: cell-based or functional assay
[5] = molecular target: T2, mouse IL-33 (R&D Systems, # …); assay: cell-based or functional assay
[6] = molecular target: B1; assay: cell-based or functional assay
[7] = molecular target: T1, human IL-33 (R&D Systems, # …); assay: SPR (Biacore T-200), 25 C; Fc fusion captured by anti-Fc antibody, IL-33 injected
Procedure: as §2

[8] = molecular target: T3, human ST2 (amino acids 1-556 of accession number NP_057316) on HEK293/hST2/NFkB-luciferase cells (human, UniProt Q01638 19-556); assay: cell-based or functional assay
T3 sequence (looked up): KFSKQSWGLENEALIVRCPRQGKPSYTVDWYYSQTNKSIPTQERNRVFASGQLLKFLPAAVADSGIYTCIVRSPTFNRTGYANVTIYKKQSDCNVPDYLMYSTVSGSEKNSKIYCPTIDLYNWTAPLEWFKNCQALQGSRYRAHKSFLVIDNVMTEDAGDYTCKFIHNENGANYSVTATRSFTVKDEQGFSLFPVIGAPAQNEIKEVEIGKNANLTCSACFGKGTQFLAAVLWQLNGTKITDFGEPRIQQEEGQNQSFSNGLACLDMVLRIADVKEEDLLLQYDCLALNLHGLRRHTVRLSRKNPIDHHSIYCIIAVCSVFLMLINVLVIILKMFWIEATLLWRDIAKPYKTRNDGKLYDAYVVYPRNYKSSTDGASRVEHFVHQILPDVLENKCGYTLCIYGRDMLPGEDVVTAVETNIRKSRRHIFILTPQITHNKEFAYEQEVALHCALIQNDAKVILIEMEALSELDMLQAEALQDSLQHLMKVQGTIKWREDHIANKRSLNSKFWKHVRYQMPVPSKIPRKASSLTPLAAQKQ

[9] = molecular target: B1; assay: SPR (Biacore T-200), 37 C; Fc fusion captured by anti-Fc antibody, MfIL-33-6His injected
Procedure: as §2

[10] = molecular target: T1, human IL-33 (R&D Systems, # …); assay: SPR (Biacore T-200), 37 C; Fc fusion captured by anti-Fc antibody, IL-33 injected
Procedure: as §2

[11] = molecular target: T2, mouse IL-33 (R&D Systems, # …); assay: SPR (Biacore T-200), 37 C; Fc fusion captured by anti-Fc antibody, mouse IL-33 injected
Procedure: as §2

[12] = molecular target: B1; assay: SPR (Biacore T-200), 25 C; Fc fusion captured by anti-Fc antibody, MfIL-33-6His injected
Procedure: as §2

Row | Binder | % Maximum blocking [1] [%] | IC50 [2] [nM] | 60 nM Mouse IL-33 Bound (RU) [3] [RU] | Kd [3] [nM] | koff [3] [s⁻¹] | kon [3] [M⁻¹ s⁻¹] | t1/2 [3] [min] | IC50 (M), inhibition of 5 pM human IL-33 activation of HEK293/hST2/NFkB-luciferase cells [4] [M] | IC50 (M), inhibition of 30 pM mouse IL-33 activation of HEK293/hST2/NFkB-luciferase cells [5] [M] | IC50 (M), inhibition of 5 pM monkey IL-33 activation of HEK293/hST2/NFkB-luciferase cells [6] [M] | 60 nM Human IL-33 Bound (RU) [7] [RU] | Kd [7] [nM] | koff [7] [s⁻¹] | kon [7] [M⁻¹ s⁻¹] | t1/2 [7] [min] | also measured
1 | hST2-mFc (Fc fusion, also called second IL-33 antagonist; ST2 receptor protein) KFSKQSWGLENEALIVRCPRQGKPSYTVDWYYSQTNKSIPTQERNRVFASGQLLKFLPAAVADSGIYTCIVRSPTFNRTGYANVTIYKKQSDCNVPDYLMYSTVSGSEKNSKIYCPTIDLYNWTAPLEWFKNCQALQGSRYRAHKSFLVIDNVMTEDAGDYTCKFIHNENGANYSVTATRSFTVKDEQGFSLFPVIGAPAQNEIKEVEIGKNANLTCSACFGKGTQFLAAVLWQLNGTKITDFGEPRIQQEEGQNQSFSNGLACLDMVLRIADVKEEDLLLQYDCLALNLHGLRRHTVRLSRKNPIDHHSEPRGPTIKPCPPCKCPAPNLLGGPSVFIFPPKIKDVLMISLSPIVTCVVVDVSEDDPDVQISWFVNNVEVHTAQTQTHREDYNSTLRVVSALPIQHQDWMSGKEFKCKVNNKDLPAPIERTISKPKGSVRAPQVYVLPPPEEEMTKKQVTLTCMVTDFMPEDIYVEWTNNGKTELNYKNTEPVLDSDGSYFMYSKLRVEKKNWVERNSYSCSVVHEGLHNHHTTKSFSRTPGK | 100 | 0.0169 | 18 | 0.0882 | 0.00035 | 3.97e+06 | 33 | 1.2e-11 | 1.4e-10 | 5.5e-12 | 24 | 0.0536 | 0.000307 | 5.72e+06 | 38 | 
2 | B1 |  |  |  |  |  |  |  |  |  |  |  |  |  |  |  | EC50 (M), activation of HEK293/hST2/NFkB-luciferase cells [8]: 1.7e-12 M and 1.3e-12 M
3 | mST2-mIL1RAcP-mFc (Fc fusion, also called fourth IL-33 antagonist; mouse IL-33 Trap) SKSSWGLENEALIVRCPQRGRSTYPVEWYYSDTNESIPTQKRNRIFVSRDRLKFLPARVEDSGIYACVIRSPNLNKTGYLNVTIHKKPPSCNIPDYLMYSTVRGSDKNFKITCPTIDLYNWTAPVQWFKNCKALQEPRFRAHRSYLFIDNVTHDDEGDYTCQFTHAENGTNYIVTATRSFTVEEKGFSMFPVITNPPYNHTMEVEIGKPASIACSACFGKGSHFLADVLWQINKTVVGNFGEARIQEEEGRNESSSNDMDCLTSVLRITGVTEKDLSLEYDCLALNLHGMIRHTIRLRRKQPIDHRSERCDDWGLDTMRQIQVFEDEPARIKCPLFEHFLKYNYSTAHSSGLTLIWYWTRQDRDLEEPINFRLPENRISKEKDVLWFRPTLLNDTGNYTCMLRNTTYCSKVAFPLEVVQKDSCFNSAMRFPVHKMYIEHGIHKITCPNVDGYFPSSVKPSVTWYKGCTEIVDFHNVLPEGMNLSFFIPLVSNNGNYTCVVTYPENGRLFHLTRTVTVKVVGSPKDALPPQIYSPNDRVVYEKEPGEELVIPCKVYFSFIMDSHNEVWWTIDGKKPDDVTVDITINESVSYSSTEDETRTQILSIKKVTPEDLRRNYVCHARNTKGEAEQAAKVKQKVIPPRYTVESGEPRGPTIKPCPPCKCPAPNLLGGPSVFIFPPKIKDVLMISLSPIVTCVVVDVSEDDPDVQISWFVNNVEVHTAQTQTHREDYNSTLRVVSALPIQHQDWMSGKEFKCKVNNKDLPAPIERTISKPKGSVRAPQVYVLPPPEEEMTKKQVTLTCMVTDFMPEDIYVEWTNNGKTELNYKNTEPVLDSDGSYFMYSKLRVEKKNWVERNSYSCSVVHEGLHNHHTTKSFSRTPGK | 97 | 0.112 | 22 | 0.0105 | 4.94e-05 | 4.73e+06 | 234 | 4.8e-10 | 8.7e-12 | 6.4e-11 | 22 | 0.0709 | 0.00129 | 1.82e+07 | 9 | 60 nM Monkey IL-33 Bound (RU) [9]: 21 RU; Kd [9]: 0.19 nM; koff [9]: 0.00117 s⁻¹; kon [9]: 6.16e+06 M⁻¹ s⁻¹; t1/2 [9]: 10 min; 60 nM Human IL-33 Bound (RU) [10]: 20 RU; Kd [10]: 0.353 nM; koff [10]: 0.00322 s⁻¹; kon [10]: 9.11e+06 M⁻¹ s⁻¹; t1/2 [10]: 4 min; 60 nM Mouse IL-33 Bound (RU) [11]: 20 RU; Kd [11]: 0.0213 nM; koff [11]: 0.000128 s⁻¹; kon [11]: 6e+06 M⁻¹ s⁻¹; t1/2 [11]: 90 min; 60 nM Monkey IL-33 Bound (RU) [12]: 23 RU; Kd [12]: 0.0535 nM; koff [12]: 0.000244 s⁻¹; kon [12]: 4.55e+06 M⁻¹ s⁻¹; t1/2 [12]: 47 min
